Tests used:
Assay in all cases: purified protein
Assay type in all cases: biochemical, Corynebacterium glutamicum
purified protein [1] = substrate: NC(=O)C1=CN([C@@H]2O[C@H](COP(=O)(O)OP(=O)(O)OC[C@H]3O[C@@H](n4cnc5c(N)ncnc54)[C@H](OP(=O)(O)O)[C@@H]3O)[C@@H](O)[C@H]2O)C=CC1; conditions: reductive amination, 2-oxoglutarate, NH4Cl, Tris-HCl pH 7.0, 25 °C, pH 7.0
purified protein [2] = substrate: NC(=O)c1ccc[n+]([C@@H]2O[C@H](COP(=O)(O)OP(=O)(O)OC[C@H]3O[C@@H](n4cnc5c(N)ncnc54)[C@H](OP(=O)(O)O)[C@@H]3O)[C@@H](O)[C@H]2O)c1; conditions: oxidative deamination, L-glutamate, Tris-HCl, 25 °C
purified protein [3] = substrate: O=C(O)CCC(=O)C(=O)O; conditions: reductive amination, NADPH, NH4Cl, Tris-HCl pH 7.0, 25 °C, pH 7.0

B1: GdhA (Corynebacterium glutamicum ATCC 13032) (protein)
chain: MTVDEQVSNYYDMLLKRNAGEPEFHQAVAEVLESLKIVLEKDPHYADYGLIQRLCEPERQLIFRVPWVDDQGQVHVNRGFRVQFNSALGPYKGGLRFHPSVNLGIVKFLGFEQIFKNSLTGLPIGGGKGGSDFDPKGKSDLEIMRFCQSFMTELHRHIGEYRDVPAGDIGVGGREIGYLFGHYRRMANQHESGVLTGKGLTWGGSLVRTEATGYGCVYFVSEMIKAKGESISGQKIIVSGSGNVATYAIEKAQELGATVIGFSDSSGWVHTPNGVDVAKLREIKEVRRARVSVYADEVEGATYHTDGSIWDLKCDIALPCATQNELNGENAKTLADNGCRFVAEGANMPSTPEAVEVFRERDIRFGPGKAANAGGVATSALEMQQNASRDSWSFEYTDERLQVIMKNIFKTCAETAAEYGHENDYVVGANIAGFKKVADAMLAQGVI
Km (purified protein [1]): 166 µM
Vmax (purified protein [1]): 1.54 µmol/min/mg
kcat (purified protein [1]): 0.257 s⁻¹
kcat/Km (purified protein [1]): 1540 M⁻¹ s⁻¹
Km (purified protein [2]): 505 µM
Vmax (purified protein [2]): 1.34 µmol/min/mg
kcat (purified protein [2]): 0.224 s⁻¹
kcat/Km (purified protein [2]): 443 M⁻¹ s⁻¹
Km (purified protein [3]): 2534 µM
Vmax (purified protein [3]): 0.809 µmol/min/mg
kcat (purified protein [3]): 0.135 s⁻¹
kcat/Km (purified protein [3]): 53.2 M⁻¹ s⁻¹
